According to the supplement of paper PMC9112550, “Optimization of the antimicrobial peptide Bac7 by deep mutational scanning” (BMC Biology, 2022):

Test system: Escherichia coli TOP10
Assay: shrunken log2 fold change of peptide-encoding DNA abundance (4.5 h post-induction vs induction); higher = less antimicrobial activity (less host growth inhibition)
Conditions: time post-induction: 4.5 h; library: site-saturation at positions 5, 18, 19, 20
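Note: peptides expressed intracellularly from a pBAD plasmid library in pooled LB shake-flask culture, induced with 0.3% L-arabinose, DNA abundance read by NGS, three biological replicates, DESeq2 with apeglm shrinkage.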

First: RRIRPRPPRLPRPRPRPYVPPRP
Second: RRIRPRPPRLPRPRPRPYWDPRP
The “shrunken log2 fold change” value of the first is higher: -0.0652 for the first, -0.376 for the second.

RRIRPRPPRLPRPRPRPYWMPRP and RRIRPRPPRLPRPRPRPYYIPRP are within 0.2 log units of each other in “shrunken log2 fold change” value: -1.06 for the first, -0.88 for the second.

RRIRPRPPRLPRPRPRPYYWPRP and RRIRQRPPRLPRPRPRPAAQPRP are within 0.2 log units of each other in “shrunken log2 fold change” value: -0.0723 for the first, -0.00152 for the second.

RRIRQRPPRLPRPRPRPAAYPRP and RRIRQRPPRLPRPRPRPACEPRP are within 0.2 log units of each other in “shrunken log2 fold change” value: -0.169 for the first, -0.0795 for the second.

RRIRQRPPRLPRPRPRPACGPRP and RRIRQRPPRLPRPRPRPACQPRP are within 0.2 log units of each other in “shrunken log2 fold change” value: 0.217 for the first, 0.15 for the second.

Going from RRIRQRPPRLPRPRPRPAFEPRP to RRIRQRPPRLPRPRPRPAFNPRP, the “shrunken log2 fold change” value rises from -0.0876 to 0.18.

RRIRQRPPRLPRPRPRPAIWPRP and RRIRQRPPRLPRPRPRPAKAPRP are within 0.2 log units of each other in “shrunken log2 fold change” value: -0.143 for the first, -0.101 for the second.

Compared with RRIRQRPPRLPRPRPRPALWPRP, RRIRQRPPRLPRPRPRPAPGPRP is higher in “shrunken log2 fold change” value: 0.144 for the first, 0.417 for the second.

Compared with RRIRQRPPRLPRPRPRPAPTPRP, RRIRQRPPRLPRPRPRPAQCPRP is lower in “shrunken log2 fold change” value: 0.709 for the first, -0.017 for the second.

Compared with RRIRQRPPRLPRPRPRPAQRPRP, RRIRQRPPRLPRPRPRPASKPRP is lower in “shrunken log2 fold change” value: 0.302 for the first, 0.0503 for the second.

First: RRIRQRPPRLPRPRPRPATVPRP
Second: RRIRQRPPRLPRPRPRPAVKPRP
The “shrunken log2 fold change” value of the first is higher: 0.239 for the first, -0.00195 for the second.

Going from RRIRQRPPRLPRPRPRPAWDPRP to RRIRQRPPRLPRPRPRPAWRPRP, the “shrunken log2 fold change” value falls from 1.54 to 0.497.

RRIRQRPPRLPRPRPRPAYAPRP and RRIRQRPPRLPRPRPRPAYGPRP are within 0.2 log units of each other in “shrunken log2 fold change” value: -0.189 for the first, -0.341 for the second.

RRIRQRPPRLPRPRPRPCDHPRP and RRIRQRPPRLPRPRPRPCHLPRP are within 0.2 log units of each other in “shrunken log2 fold change” value: 0.00902 for the first, -0.0134 for the second.

RRIRQRPPRLPRPRPRPCITPRP and RRIRQRPPRLPRPRPRPCKCPRP are within 0.2 log units of each other in “shrunken log2 fold change” value: -0.167 for the first, -0.000687 for the second.

RRIRQRPPRLPRPRPRPCLTPRP and RRIRQRPPRLPRPRPRPCMEPRP are within 0.2 log units of each other in “shrunken log2 fold change” value: 0.0158 for the first, -0.1 for the second.

RRIRQRPPRLPRPRPRPCMFPRP and RRIRQRPPRLPRPRPRPCMLPRP are within 0.2 log units of each other in “shrunken log2 fold change” value: -0.214 for the first, -0.239 for the second.

Compared with RRIRQRPPRLPRPRPRPCMRPRP, RRIRQRPPRLPRPRPRPCNIPRP is lower in “shrunken log2 fold change” value: 0.0607 for the first, -0.646 for the second.

RRIRQRPPRLPRPRPRPCPNPRP and RRIRQRPPRLPRPRPRPCQGPRP are within 0.2 log units of each other in “shrunken log2 fold change” value: -0.152 for the first, -0.0332 for the second.

RRIRQRPPRLPRPRPRPCQRPRP and RRIRQRPPRLPRPRPRPCSFPRP are within 0.2 log units of each other in “shrunken log2 fold change” value: -0.0113 for the first, -0.0439 for the second.

RRIRQRPPRLPRPRPRPCWDPRP and RRIRQRPPRLPRPRPRPDCMPRP are within 0.2 log units of each other in “shrunken log2 fold change” value: -0.155 for the first, 0.00805 for the second.

RRIRQRPPRLPRPRPRPDEKPRP and RRIRQRPPRLPRPRPRPDFAPRP are within 0.2 log units of each other in “shrunken log2 fold change” value: 0.02 for the first, -0.0596 for the second.

First: RRIRQRPPRLPRPRPRPDGCPRP
Second: RRIRQRPPRLPRPRPRPDGGPRP
The “shrunken log2 fold change” value of the first is lower: -0.103 for the first, 0.255 for the second.

Going from RRIRQRPPRLPRPRPRPDGPPRP to RRIRQRPPRLPRPRPRPDHWPRP, the “shrunken log2 fold change” value falls from 0.0029 to -0.368.

RRIRQRPPRLPRPRPRPDHYPRP and RRIRQRPPRLPRPRPRPDIEPRP are within 0.2 log units of each other in “shrunken log2 fold change” value: -0.213 for the first, -0.32 for the second.

RRIRQRPPRLPRPRPRPDIQPRP and RRIRQRPPRLPRPRPRPDLEPRP are within 0.2 log units of each other in “shrunken log2 fold change” value: 0.00127 for the first, -0.0293 for the second.

RRIRQRPPRLPRPRPRPDLFPRP and RRIRQRPPRLPRPRPRPDPHPRP are within 0.2 log units of each other in “shrunken log2 fold change” value: -0.0321 for the first, -0.0406 for the second.

RRIRQRPPRLPRPRPRPDPMPRP and RRIRQRPPRLPRPRPRPDRAPRP are within 0.2 log units of each other in “shrunken log2 fold change” value: -0.0539 for the first, 0.12 for the second.

RRIRQRPPRLPRPRPRPDRFPRP and RRIRQRPPRLPRPRPRPDRGPRP are within 0.2 log units of each other in “shrunken log2 fold change” value: 0.0204 for the first, 0.0176 for the second.

RRIRQRPPRLPRPRPRPDRSPRP and RRIRQRPPRLPRPRPRPDSGPRP are within 0.2 log units of each other in “shrunken log2 fold change” value: 0.0153 for the first, -0.0171 for the second.

RRIRQRPPRLPRPRPRPDSHPRP and RRIRQRPPRLPRPRPRPDTDPRP are within 0.2 log units of each other in “shrunken log2 fold change” value: -0.065 for the first, -0.00927 for the second.

RRIRQRPPRLPRPRPRPDTFPRP and RRIRQRPPRLPRPRPRPDTIPRP are within 0.2 log units of each other in “shrunken log2 fold change” value: -0.00762 for the first, 0.0406 for the second.

RRIRQRPPRLPRPRPRPDTYPRP and RRIRQRPPRLPRPRPRPDVPPRP are within 0.2 log units of each other in “shrunken log2 fold change” value: -0.154 for the first, 0.0169 for the second.

Compared with RRIRQRPPRLPRPRPRPDYEPRP, RRIRQRPPRLPRPRPRPDYLPRP is lower in “shrunken log2 fold change” value: 0.0301 for the first, -0.212 for the second.

Compared with RRIRQRPPRLPRPRPRPDYVPRP, RRIRQRPPRLPRPRPRPEAAPRP is higher in “shrunken log2 fold change” value: 0.07 for the first, 0.751 for the second.

RRIRQRPPRLPRPRPRPEANPRP and RRIRQRPPRLPRPRPRPECDPRP are within 0.2 log units of each other in “shrunken log2 fold change” value: 0.0119 for the first, 0.0401 for the second.

RRIRQRPPRLPRPRPRPECKPRP and RRIRQRPPRLPRPRPRPEDDPRP are within 0.2 log units of each other in “shrunken log2 fold change” value: -0.0182 for the first, -0.14 for the second.

RRIRQRPPRLPRPRPRPEFIPRP was tested, and the “shrunken log2 fold change” value was -0.163.
